# From IntAct's records for PubMed 20561531
# B1: SPRY domain-containing SOCS box protein 2 (Mus musculus), O88838 (parent)
# chain: MGQTALARGSSSTPTSQALYSDFSPPEGLEELLSAPPPDLVAQRHHGWNPKDCSENIDVKEGGLCFERRPVAQSTDGVRGKRGYSRGLHAWEISWPLEQRGTHAVVGVATALAPLQADHYAALLGSNSESWGWDIGRGKLYHQSKGLEAPQYPAGPQGEQLVVPERLLVVLDMEEGTLGYSIGGTYLGPAFRGLKGRTLYPSVSAVWGQCQVRIRYMGERRVEEPQSLLHLSRLCVRHALGDTRLGQISTLPLPPAMKRYLLYK
# partner: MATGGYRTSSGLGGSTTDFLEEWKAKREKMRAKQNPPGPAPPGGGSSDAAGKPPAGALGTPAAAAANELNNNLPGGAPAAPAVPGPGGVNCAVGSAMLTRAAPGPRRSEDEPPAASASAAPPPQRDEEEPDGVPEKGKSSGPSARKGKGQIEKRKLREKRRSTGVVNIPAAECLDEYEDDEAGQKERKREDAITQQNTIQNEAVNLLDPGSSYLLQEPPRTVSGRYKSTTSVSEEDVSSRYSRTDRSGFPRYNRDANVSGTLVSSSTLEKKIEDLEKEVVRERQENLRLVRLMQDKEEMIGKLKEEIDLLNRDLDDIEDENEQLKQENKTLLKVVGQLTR
# B2: PRKC apoptosis WT1 regulator protein (Homo sapiens), Q96IZ0 (parent)
# chain: B1 partner
# partner: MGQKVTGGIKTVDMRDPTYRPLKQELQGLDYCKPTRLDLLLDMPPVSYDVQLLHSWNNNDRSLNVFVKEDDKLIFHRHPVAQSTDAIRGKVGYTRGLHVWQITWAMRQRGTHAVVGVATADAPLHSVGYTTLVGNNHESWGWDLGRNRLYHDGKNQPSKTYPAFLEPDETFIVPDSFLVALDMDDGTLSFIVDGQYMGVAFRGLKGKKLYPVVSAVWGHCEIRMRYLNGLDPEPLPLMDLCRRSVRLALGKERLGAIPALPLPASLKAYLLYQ
# B3: PRKC apoptosis WT1 regulator protein (Homo sapiens), Q96IZ0 (parent)
# chain: B1 partner
# Variants of: B1
# Conditions: with pawr_human PAWR, Q96IZ0
row,Variant,effect of a mutation on the interaction
1,MGQTALARGSSSTPTSQALYSDFSPPEGLEELLSAPPPDLVAQRHHGWNPKDCSENIDVKEGGLCFERRPVAQSTDGVRGKRGYSRGLHAWEISWPLEQRGTHAVVGVATALAPLQADHAAALLGSNSESWGWDIGRGKLYHQSKGLEAPQYPAGPQGEQLVVPERLLVVLDMEEGTLGYSIGGTYLGPAFRGLKGRTLYPSVSAVWGQCQVRIRYMGERRVEEPQSLLHLSRLCVRHALGDTRLGQISTLPLPPAMKRYLLYK [Y120A],disrupting interaction
2,MGQTALARGSSSTPTSQALYSDFSPPEGLEELLSAPPPDLVAQRHHGWNPKDCSENIDVKEGGLCFERRPVAQSTDGVRGKRGYSRGLHAWEISWPLEQRGTHAVVGVATALAPLQADHYAAAAASNSESWGWDIGRGKLYHQSKGLEAPQYPAGPQGEQLVVPERLLVVLDMEEGTLGYSIGGTYLGPAFRGLKGRTLYPSVSAVWGQCQVRIRYMGERRVEEPQSLLHLSRLCVRHALGDTRLGQISTLPLPPAMKRYLLYK [L123A;L124A;G125A],disrupting interaction
3,MGQTALARGSSSTPTSQALYSDFSPPEGLEELLSAPPPDLVAQRHHGWNPKDCSENIDVKEGGLCFERRPVAQSTDGVRGKRGYSRGLHAWEISWPLEQRGTHAVVGVATALAPLQADHYAALLGSNSESWGWDIGRGKLYHQSKGLEAPQYPAGPQGEQLVVPERLLVVLDMEEGTLGYSIGGTYLGPAFRGLKGRTLYPSVSAAWGQCQVRIRYMGERRVEEPQSLLHLSRLCVRHALGDTRLGQISTLPLPPAMKRYLLYK [V206A],disrupting interaction
4,MGQTALARGSSSTPTSQALYSDFSPPEGLEELLSAPPPDLVAQRHHGWNPKDCSENIDVKEGGLCFERRPVAQSTDGVRGKRGYSRGLHAWEISWPLEQRGTHAVVGVATALAPLQADHYAALLGAAAESWGWDIGRGKLYHQSKGLEAPQYPAGPQGEQLVVPERLLVVLDMEEGTLGYSIGGTYLGPAFRGLKGRTLYPSVSAVWGQCQVRIRYMGERRVEEPQSLLHLSRLCVRHALGDTRLGQISTLPLPPAMKRYLLYK [S126A;N127A;S128A],disrupting interaction

# Variants of: B2
# Conditions: with spsb1_mouse Spsb1, Q9D5L7
row,Variant,effect of a mutation on the interaction
1,MATGGYRTSSGLGGSTTDFLEEWKAKREKMRAKQNPPGPAPPGGGSSDAAGKPPAGALGTPAAAAANELANNLPGGAPAAPAVPGPGGVNCAVGSAMLTRAAPGPRRSEDEPPAASASAAPPPQRDEEEPDGVPEKGKSSGPSARKGKGQIEKRKLREKRRSTGVVNIPAAECLDEYEDDEAGQKERKREDAITQQNTIQNEAVNLLDPGSSYLLQEPPRTVSGRYKSTTSVSEEDVSSRYSRTDRSGFPRYNRDANVSGTLVSSSTLEKKIEDLEKEVVRERQENLRLVRLMQDKEEMIGKLKEEIDLLNRDLDDIEDENEQLKQENKTLLKVVGQLTR [N70A],disrupting interaction
2,MATGGYRTSSGLGGSTTDFLEEWKAKREKMRAKQNPPGPAPPGGGSSDAAGKPPAGALGTPAAAAANDINNNLPGGAPAAPAVPGPGGVNCAVGSAMLTRAAPGPRRSEDEPPAASASAAPPPQRDEEEPDGVPEKGKSSGPSARKGKGQIEKRKLREKRRSTGVVNIPAAECLDEYEDDEAGQKERKREDAITQQNTIQNEAVNLLDPGSSYLLQEPPRTVSGRYKSTTSVSEEDVSSRYSRTDRSGFPRYNRDANVSGTLVSSSTLEKKIEDLEKEVVRERQENLRLVRLMQDKEEMIGKLKEEIDLLNRDLDDIEDENEQLKQENKTLLKVVGQLTR [E68D;L69I],increasing interaction
3,MATGGYRTSSGLGGSTTDFLEEWKAKREKMRAKQNPPGPAPPGGGSSDAAGKPPAGALGTPAAAAANELNANLPGGAPAAPAVPGPGGVNCAVGSAMLTRAAPGPRRSEDEPPAASASAAPPPQRDEEEPDGVPEKGKSSGPSARKGKGQIEKRKLREKRRSTGVVNIPAAECLDEYEDDEAGQKERKREDAITQQNTIQNEAVNLLDPGSSYLLQEPPRTVSGRYKSTTSVSEEDVSSRYSRTDRSGFPRYNRDANVSGTLVSSSTLEKKIEDLEKEVVRERQENLRLVRLMQDKEEMIGKLKEEIDLLNRDLDDIEDENEQLKQENKTLLKVVGQLTR [N71A],disrupting interaction

# Variants of: B3
# Conditions: with spsb2_mouse Spsb2, O88838
row,Variant,effect of a mutation on the interaction
1,MATGGYRTSSGLGGSTTDFLEEWKAKREKMRAKQNPPGPAPPGGGSSDAAGKPPAGALGTPAAAAANDINNNLPGGAPAAPAVPGPGGVNCAVGSAMLTRAAPGPRRSEDEPPAASASAAPPPQRDEEEPDGVPEKGKSSGPSARKGKGQIEKRKLREKRRSTGVVNIPAAECLDEYEDDEAGQKERKREDAITQQNTIQNEAVNLLDPGSSYLLQEPPRTVSGRYKSTTSVSEEDVSSRYSRTDRSGFPRYNRDANVSGTLVSSSTLEKKIEDLEKEVVRERQENLRLVRLMQDKEEMIGKLKEEIDLLNRDLDDIEDENEQLKQENKTLLKVVGQLTR [E68D;L69I],increasing interaction

# Variants of: B3
# Conditions: with spsb4_mouse Spsb4, Q8R5B6
# spsb4_mouse Spsb4, Q8R5B6, sequence (Q8R5B6 whole entry): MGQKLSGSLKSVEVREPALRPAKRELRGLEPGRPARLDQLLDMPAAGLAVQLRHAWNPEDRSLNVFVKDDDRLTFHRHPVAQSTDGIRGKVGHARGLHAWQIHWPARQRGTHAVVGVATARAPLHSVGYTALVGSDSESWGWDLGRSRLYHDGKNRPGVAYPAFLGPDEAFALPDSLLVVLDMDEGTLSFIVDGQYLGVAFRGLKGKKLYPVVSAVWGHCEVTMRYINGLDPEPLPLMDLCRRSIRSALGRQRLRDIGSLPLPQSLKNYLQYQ
row,Variant,effect of a mutation on the interaction
1,MATGGYRTSSGLGGSTTDFLEEWKAKREKMRAKQNPPGPAPPGGGSSDAAGKPPAGALGTPAAAAANDINNNLPGGAPAAPAVPGPGGVNCAVGSAMLTRAAPGPRRSEDEPPAASASAAPPPQRDEEEPDGVPEKGKSSGPSARKGKGQIEKRKLREKRRSTGVVNIPAAECLDEYEDDEAGQKERKREDAITQQNTIQNEAVNLLDPGSSYLLQEPPRTVSGRYKSTTSVSEEDVSSRYSRTDRSGFPRYNRDANVSGTLVSSSTLEKKIEDLEKEVVRERQENLRLVRLMQDKEEMIGKLKEEIDLLNRDLDDIEDENEQLKQENKTLLKVVGQLTR [E68D;L69I],increasing interaction
